Experimental data from publication PMC6232179.

Biological target: COX-2 (prostaglandin endoperoxide synthase 2, PTGS2), purified His-tagged protein (UniProt P35354)
Test: SPR; COX-2 immobilised on a CM5 chip, cyclosporine A flowed at increasing concentrations; 10 mM Hepes pH 7.2, 150 mM NaCl, 1 mM EDTA, 0.005% P20, 2% ethanol; 25 °C, 30 µl/min; 1:1 Langmuir model; triplicate

Chain of COX-2 (prostaglandin endoperoxide synthase 2, PTGS2), purified His-tagged protein (P35354 18-604): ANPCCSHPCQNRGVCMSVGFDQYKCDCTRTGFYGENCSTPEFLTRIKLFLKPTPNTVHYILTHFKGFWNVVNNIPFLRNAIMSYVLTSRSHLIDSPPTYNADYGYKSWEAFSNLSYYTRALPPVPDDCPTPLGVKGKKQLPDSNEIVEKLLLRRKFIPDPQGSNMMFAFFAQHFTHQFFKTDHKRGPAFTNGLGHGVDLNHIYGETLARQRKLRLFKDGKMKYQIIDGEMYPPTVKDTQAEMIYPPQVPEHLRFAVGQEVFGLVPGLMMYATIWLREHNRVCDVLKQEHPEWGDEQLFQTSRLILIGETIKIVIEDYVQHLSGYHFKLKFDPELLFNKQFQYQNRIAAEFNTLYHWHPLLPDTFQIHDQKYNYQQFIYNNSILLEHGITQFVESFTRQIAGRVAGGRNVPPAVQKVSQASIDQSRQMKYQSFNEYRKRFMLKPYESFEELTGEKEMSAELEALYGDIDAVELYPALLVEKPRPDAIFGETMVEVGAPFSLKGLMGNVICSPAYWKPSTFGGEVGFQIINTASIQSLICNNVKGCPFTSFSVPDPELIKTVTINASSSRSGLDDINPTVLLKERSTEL

Substance: Cyclosporine A (peptide)
- Kd: 895 nM
